Assay results reported in PMC3976988 (Nature structural & molecular biology, 2013).

Target: exosome core (S. cerevisiae, UniProt P46948 1-246; Q05636 1-305; Q12277 1-265; P25359 1-394; P48240 1-250; P53256 …)
Assay: tandem affinity purification + ion-exchange chromatography

- stoichiometry N: 1 molar ratio
B1: Rrp44 (enzyme, S. cerevisiae, UniProt Q08162 1-1001, looked up)
chain: MSVPAIAPRRKRLADGLSVTQKVFVRSRNGGATKIVREHYLRSDIPCLSRSCTKCPQIVVPDAQNELPKFILSDSPLELSAPIGKHYVVLDTNVVLQAIDLLENPNCFFDVIVPQIVLDEVRNKSYPVYTRLRTLCRDSDDHKRFIVFHNEFSEHTFVERLPNETINDRNDRAIRKTCQWYSEHLKPYDINVVLVTNDRLNREAATKEVESNIITKSLVQYIELLPNADDIRDSIPQMDSFDKDLERDTFSDFTFPEYYSTARVMGGLKNGVLYQGNIQISEYNFLEGSVSLPRFSKPVLIVGQKNLNRAFNGDQVIVELLPQSEWKAPSSIVLDSEHFDVNDNPDIEAGDDDDNNESSSNTTVISDKQRRLLAKDAMIAQRSKKIQPTAKVVYIQRRSWRQYVGQLAPSSVDPQSSSTQNVFVILMDKCLPKVRIRTRRAAELLDKRIVISIDSWPTTHKYPLGHFVRDLGTIESAQAETEALLLEHDVEYRPFSKKVLECLPAEGHDWKAPTKLDDPEAVSKDPLLTKRKDLRDKLICSIDPPGCVDIDDALHAKKLPNGNWEVGVHIADVTHFVKPGTALDAEGAARGTSVYLVDKRIDMLPMLLGTDLCSLKPYVDRFAFSVIWELDDSANIVNVNFMKSVIRSREAFSYEQAQLRIDDKTQNDELTMGMRALLKLSVKLKQKRLEAGALNLASPEVKVHMDSETSDPNEVEIKKLLATNSLVEEFMLLANISVARKIYDAFPQTAMLRRHAAPPSTNFEILNEMLNTRKNMSISLESSKALADSLDRCVDPEDPYFNTLVRIMSTRCMMAAQYFYSGAYSYPDFRHYGLAVDIYTHFTSPIRRYCDVVAHRQLAGAIGYEPLSLTHRDKNKMDMICRNINRKHRNAQFAGRASIEYYVGQVMRNNESTETGYVIKVFNNGIVVLVPKFGVEGLIRLDNLTEDPNSAAFDEVEYKLTFVPTNSDKPRDVYVFDKVEVQVRSVMDPITSKRKAELLLK
